In publication PMC4837003:
Where two headings read alike, the source gives them in different places.

Experiments:
[1] = target: HLA-DR1 (DRA*0101/DRB*010101), soluble extracellular domains (human)
[2] = target: HLA-DR1 (DRA*0101/DRB*010101), soluble extracellular domains (human); remark: listed apart in the source
[3] = target: HLA-A*0201 heavy chain with β2-microglobulin; experiment: differential scanning fluorimetry
[4] = target: HLA-A*0201 heavy chain with β2-microglobulin; experiment: circular dichroism
[5] = target: HLA-DR1 (DRA*0101/DRB*010101), soluble extracellular domains (human); experiment: differential scanning fluorimetry

| apparent Tm by DSF [3] | apparent Tm by CD [4] | Molecule | also measured |
| --- | --- | --- | --- |
| 67.3 °C | – | tyrosinase peptide (TYR) | – |
| 59.2 °C | 51 °C | ALGIGILTV [MART-1_(27(2L)-35) peptide] | half-life of the complex (slowest phase, peptide dissociation) [3]: 6.9 h |
| 62.2 °C | – | IMDQVPFSV [gp100_(209(2M)-217) peptide] | – |
| 65.1 °C | 63 °C | LLYGFVNYV [HUD_(87(2L,9V)-95) peptide] | – |
| 61.4 °C | 63 °C | YMDGFMSQV [TYR (T5F) peptide] | – |

Further lines, the molecule ahead of its results:

| Molecule | apparent Tm by DSF [3] | apparent Tm by CD [4] | also measured |
| --- | --- | --- | --- |
| influenza HA peptide | – | – | apparent Tm by DSF [1]: 83 °C; apparent Tm by DSF [2]: 82.1 °C |
| SL9 peptide | 59 °C | – | – |
| NS3_(1406(7N)-1415) peptide | 55.8 °C | – | – |
| LGYGFVNYI [HUD peptide] | 44.8 °C | – | – |
| YRAL [Min4 peptide] | – | – | other [5]: 67.8 °C |
